Drawing on PMC2134809, this text covers percent of the complex bound to the column that holds profilin for one substance.

The assay addresses profilin (Acanthamoeba). The experiment in a line: affinity chromatography.

Arp2/3 complex, sequence (P53487 whole entry, looked up, one chain of several): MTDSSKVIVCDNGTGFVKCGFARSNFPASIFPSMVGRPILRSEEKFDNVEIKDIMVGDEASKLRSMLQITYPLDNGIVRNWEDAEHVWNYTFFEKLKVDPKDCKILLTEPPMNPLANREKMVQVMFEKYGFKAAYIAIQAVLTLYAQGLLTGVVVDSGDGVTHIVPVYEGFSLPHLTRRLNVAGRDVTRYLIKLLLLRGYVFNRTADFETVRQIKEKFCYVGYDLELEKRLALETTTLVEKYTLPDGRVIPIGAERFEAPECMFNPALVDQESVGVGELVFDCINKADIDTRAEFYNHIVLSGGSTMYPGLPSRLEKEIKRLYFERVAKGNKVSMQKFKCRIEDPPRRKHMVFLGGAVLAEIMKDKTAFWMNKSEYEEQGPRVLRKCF

Take “Arp2/3 complex (from UniProt P53487 1-388)”: the percent of the complex bound to the column that holds profilin turned out to be 10%.
